# Literature values as cited in PMC11260871.
# Tests used:
# [1] = target: laminin gamma1 LEb (UniProt P11047)
# [2] = target: laminin alpha2 (UniProt P24043)
# [3] = target: laminin alpha4 (UniProt Q16363)
# [4] = target: laminin alpha5 (UniProt O15230)
# [5] = target: laminin alpha1 (UniProt P25391)
# [6] = target: laminin gamma LN domain LN (UniProt P11047)
# Chain of UniProt Q16363 (Q16363 25-1823): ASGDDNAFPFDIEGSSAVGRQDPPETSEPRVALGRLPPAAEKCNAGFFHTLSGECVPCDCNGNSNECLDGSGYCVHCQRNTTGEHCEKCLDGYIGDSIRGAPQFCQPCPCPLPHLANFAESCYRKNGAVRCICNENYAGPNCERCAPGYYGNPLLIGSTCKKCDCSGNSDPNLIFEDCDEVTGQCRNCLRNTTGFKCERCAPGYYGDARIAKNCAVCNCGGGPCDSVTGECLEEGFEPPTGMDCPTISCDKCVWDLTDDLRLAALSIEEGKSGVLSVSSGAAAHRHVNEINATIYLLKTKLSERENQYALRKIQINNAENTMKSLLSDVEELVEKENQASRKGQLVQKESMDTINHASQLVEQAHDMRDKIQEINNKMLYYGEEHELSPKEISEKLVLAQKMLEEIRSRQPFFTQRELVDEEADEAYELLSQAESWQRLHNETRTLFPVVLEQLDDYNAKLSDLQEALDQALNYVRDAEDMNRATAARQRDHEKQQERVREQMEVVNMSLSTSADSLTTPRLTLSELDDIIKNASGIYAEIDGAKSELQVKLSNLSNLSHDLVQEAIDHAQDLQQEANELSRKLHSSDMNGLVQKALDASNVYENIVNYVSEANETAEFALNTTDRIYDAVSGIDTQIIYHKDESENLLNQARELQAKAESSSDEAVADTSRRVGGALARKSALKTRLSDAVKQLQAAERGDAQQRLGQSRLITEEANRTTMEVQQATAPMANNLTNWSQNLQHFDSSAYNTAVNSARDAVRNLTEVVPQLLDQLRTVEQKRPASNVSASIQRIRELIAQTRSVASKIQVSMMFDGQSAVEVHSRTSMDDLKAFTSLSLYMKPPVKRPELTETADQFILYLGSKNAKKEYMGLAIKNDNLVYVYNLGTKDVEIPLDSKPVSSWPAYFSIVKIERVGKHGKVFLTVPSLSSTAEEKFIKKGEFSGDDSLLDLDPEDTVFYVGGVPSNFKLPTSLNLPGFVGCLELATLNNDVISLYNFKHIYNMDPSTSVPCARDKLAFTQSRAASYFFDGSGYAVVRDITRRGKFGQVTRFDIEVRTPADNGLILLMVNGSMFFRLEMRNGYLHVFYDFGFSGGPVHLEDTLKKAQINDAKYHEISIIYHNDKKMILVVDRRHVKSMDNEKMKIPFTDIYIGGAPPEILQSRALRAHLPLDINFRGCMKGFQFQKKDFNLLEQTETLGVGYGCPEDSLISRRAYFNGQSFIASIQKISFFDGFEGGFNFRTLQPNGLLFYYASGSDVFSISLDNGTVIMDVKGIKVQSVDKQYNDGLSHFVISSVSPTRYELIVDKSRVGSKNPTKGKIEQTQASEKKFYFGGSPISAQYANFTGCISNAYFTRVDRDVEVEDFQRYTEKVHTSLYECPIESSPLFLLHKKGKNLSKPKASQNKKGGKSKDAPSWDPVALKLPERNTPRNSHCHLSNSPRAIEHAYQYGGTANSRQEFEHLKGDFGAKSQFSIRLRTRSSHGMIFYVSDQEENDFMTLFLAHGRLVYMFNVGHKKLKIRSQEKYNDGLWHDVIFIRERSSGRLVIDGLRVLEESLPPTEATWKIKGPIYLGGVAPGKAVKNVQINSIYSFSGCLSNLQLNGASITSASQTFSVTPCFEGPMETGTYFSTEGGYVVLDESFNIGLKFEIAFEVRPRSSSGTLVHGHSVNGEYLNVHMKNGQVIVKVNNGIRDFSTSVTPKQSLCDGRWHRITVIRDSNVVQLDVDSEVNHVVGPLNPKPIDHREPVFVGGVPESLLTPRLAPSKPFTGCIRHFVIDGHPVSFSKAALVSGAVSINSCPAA
# Chain of UniProt P24043 (P24043 23-3122): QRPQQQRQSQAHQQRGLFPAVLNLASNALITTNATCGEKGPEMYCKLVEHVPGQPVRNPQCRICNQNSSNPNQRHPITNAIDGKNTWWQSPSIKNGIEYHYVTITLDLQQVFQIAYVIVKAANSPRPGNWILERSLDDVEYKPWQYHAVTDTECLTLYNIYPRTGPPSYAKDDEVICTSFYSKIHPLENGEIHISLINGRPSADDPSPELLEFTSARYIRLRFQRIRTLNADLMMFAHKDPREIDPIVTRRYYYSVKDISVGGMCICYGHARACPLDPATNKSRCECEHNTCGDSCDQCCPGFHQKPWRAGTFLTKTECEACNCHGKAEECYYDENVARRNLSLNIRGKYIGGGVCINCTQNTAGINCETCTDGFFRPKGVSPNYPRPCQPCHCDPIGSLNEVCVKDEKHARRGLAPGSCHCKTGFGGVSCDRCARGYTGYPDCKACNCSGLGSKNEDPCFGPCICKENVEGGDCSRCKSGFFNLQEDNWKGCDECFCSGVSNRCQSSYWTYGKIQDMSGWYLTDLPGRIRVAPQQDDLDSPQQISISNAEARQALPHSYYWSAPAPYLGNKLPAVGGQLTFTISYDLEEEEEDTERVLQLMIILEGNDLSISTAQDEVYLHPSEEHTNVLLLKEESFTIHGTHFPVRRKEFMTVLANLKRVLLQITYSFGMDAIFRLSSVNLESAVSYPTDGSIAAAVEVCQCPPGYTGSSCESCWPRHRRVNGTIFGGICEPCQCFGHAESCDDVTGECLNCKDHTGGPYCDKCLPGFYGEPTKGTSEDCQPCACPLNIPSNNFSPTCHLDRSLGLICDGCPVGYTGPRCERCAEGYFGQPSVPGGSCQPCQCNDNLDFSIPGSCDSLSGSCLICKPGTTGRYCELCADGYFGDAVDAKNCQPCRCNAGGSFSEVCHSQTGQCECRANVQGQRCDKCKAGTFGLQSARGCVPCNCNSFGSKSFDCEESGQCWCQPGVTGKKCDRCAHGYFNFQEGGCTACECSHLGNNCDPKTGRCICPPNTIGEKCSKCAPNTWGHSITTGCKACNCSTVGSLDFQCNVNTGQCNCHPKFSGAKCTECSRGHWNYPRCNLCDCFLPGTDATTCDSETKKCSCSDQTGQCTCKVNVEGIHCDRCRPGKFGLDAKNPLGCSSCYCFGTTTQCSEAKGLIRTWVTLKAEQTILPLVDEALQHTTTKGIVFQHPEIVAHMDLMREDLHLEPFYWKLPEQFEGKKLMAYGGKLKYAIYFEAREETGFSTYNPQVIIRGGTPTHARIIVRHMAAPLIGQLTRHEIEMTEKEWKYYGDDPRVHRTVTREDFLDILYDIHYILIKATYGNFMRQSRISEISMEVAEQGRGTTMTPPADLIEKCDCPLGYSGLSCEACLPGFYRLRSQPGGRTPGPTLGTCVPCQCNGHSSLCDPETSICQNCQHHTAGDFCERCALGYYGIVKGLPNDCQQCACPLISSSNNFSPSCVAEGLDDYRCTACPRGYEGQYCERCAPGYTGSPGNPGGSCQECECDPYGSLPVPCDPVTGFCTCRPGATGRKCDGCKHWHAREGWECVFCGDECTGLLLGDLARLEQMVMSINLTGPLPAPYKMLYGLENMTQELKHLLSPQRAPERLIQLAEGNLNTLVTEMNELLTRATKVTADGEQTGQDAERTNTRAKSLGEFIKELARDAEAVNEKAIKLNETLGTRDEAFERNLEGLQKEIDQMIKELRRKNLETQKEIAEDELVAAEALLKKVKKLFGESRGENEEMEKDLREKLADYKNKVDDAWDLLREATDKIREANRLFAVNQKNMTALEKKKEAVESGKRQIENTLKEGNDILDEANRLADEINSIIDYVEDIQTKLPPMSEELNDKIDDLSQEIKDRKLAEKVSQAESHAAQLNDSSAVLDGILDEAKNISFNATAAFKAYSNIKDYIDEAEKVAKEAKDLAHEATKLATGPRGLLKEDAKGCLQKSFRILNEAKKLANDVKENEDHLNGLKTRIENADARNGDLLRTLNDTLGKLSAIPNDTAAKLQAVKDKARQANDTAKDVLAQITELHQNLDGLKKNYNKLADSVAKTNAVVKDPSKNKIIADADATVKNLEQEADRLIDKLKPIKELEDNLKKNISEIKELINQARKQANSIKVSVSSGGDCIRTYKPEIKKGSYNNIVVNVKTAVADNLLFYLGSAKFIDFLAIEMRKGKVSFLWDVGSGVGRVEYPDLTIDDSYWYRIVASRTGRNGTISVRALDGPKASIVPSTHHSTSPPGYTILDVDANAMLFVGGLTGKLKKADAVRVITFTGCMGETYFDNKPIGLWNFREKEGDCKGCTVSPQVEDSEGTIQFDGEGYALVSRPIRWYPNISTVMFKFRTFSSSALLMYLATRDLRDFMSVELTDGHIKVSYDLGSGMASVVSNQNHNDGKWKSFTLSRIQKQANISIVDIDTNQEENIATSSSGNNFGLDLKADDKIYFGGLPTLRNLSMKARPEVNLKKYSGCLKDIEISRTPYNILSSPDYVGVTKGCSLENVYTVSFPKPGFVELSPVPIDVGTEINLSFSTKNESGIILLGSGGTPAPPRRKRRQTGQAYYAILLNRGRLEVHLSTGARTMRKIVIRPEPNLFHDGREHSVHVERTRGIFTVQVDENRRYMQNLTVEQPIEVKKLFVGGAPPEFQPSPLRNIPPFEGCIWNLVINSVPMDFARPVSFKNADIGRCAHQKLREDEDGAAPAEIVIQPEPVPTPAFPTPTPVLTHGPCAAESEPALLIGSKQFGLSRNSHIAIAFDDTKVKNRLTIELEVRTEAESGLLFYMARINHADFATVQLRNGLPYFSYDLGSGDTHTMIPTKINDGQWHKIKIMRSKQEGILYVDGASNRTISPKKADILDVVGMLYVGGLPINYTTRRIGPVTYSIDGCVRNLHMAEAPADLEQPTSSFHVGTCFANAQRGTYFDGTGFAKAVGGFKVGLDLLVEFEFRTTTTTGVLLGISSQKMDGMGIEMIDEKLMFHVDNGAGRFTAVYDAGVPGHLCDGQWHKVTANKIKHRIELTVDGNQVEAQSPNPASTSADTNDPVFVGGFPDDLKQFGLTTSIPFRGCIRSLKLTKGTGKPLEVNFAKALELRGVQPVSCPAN
substance,measurement,setting,value
nidogen-1 G3 (from UniProt P14543),Kd,[1],< 1 nM
alpha-dystroglycan (from UniProt Q14118),Kd,[2],43 nM
same,Kd,[3],> 1000 nM
same,Kd,[4],150 nM
same,Kd,[5],20 nM
laminin beta LN domain LN (from UniProt P07942),Kd,[6],18 µM
